Data reported in paper PMC5386385, “DRP-1 is required for BH3 mimetic-mediated mitochondrial fragmentation and apoptosis” (Cell Death & Disease, 2017).

Legend:
[1] = molecular target: WT MCL-1 fusion protein (N-terminal His6-tag fused to amino acids Glu173-Arg329, containing the BH3, BH1 and BH2 domains) (human) (UniProt Q07820); experiment: differential scanning fluorimetry (thermal shift assay); purified MCL-1 proteins (10 uM) with or without the indicated concentrations of ligand, Sypro-Orange, thermal ramping 0.3 °C per min between 25 and 94 °C, final DMSO 4% v/v; ΔTm against buffer without peptide
Sequence of WT MCL-1 fusion protein (N-terminal His6-tag fused to amino acids Glu173-Arg329, containing the BH3, BH1 and BH2 domains) (human) (Q07820 173-329): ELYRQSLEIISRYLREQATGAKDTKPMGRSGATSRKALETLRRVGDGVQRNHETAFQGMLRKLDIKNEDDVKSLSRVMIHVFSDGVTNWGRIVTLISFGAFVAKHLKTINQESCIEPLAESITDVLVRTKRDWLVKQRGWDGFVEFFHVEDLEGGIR

[2] = molecular target: T1, WT MCL-1 fusion protein (N-terminal His6-tag fused to amino acids Glu173-Arg329, containing the BH3, BH1 and … (human, UniProt Q07820 173-329)); experiment: as above; details: both partners purified
T1 construct: human MCL-1, amino acids E173-R329 (BH3, BH1 and BH2 domains); the results once say 172-329; Cloned into pOPIN F; also called MCL-1 (E173-R329); MCL-1 protein (173-329); source: E. coli BL21 (DE3) pLysS, purified (Ni-NTA IMAC, Superdex 200 SEC)
T1 sequence (Q07820 173-329): as above

Row | Molecule | binding result [2] | further results
1 | MCL-1 SAHB (stabilised alpha-helix of BCL-2 domains, designed to mimic the BH3 binding helix of MCL-1) (peptide) |  | thermal shift (ΔTm) at 10 uM [1]: 4 °C
2 | RPEIWMTQGLRRLGDEINAYYAR (MCL-1 specific synthetic BH3 peptide; source: synthetic peptide (New England Peptide or GenScript)) [MS-1 (MCL-1 specific synthetic peptide)] |  | temperature shift (ΔTm) at equimolar peptide and MCL-1 [2]: ~10 °C
3 | EQWAREIGAQLRRMADDLNA (synthetic BH3 peptide of PUMA; source: synthetic peptide (New England Peptide or GenScript)) [PUMA peptide] | binds | 
4 | AELPPEFAAQLRKIGDKVYC (synthetic BH3 peptide of NOXA; source: synthetic peptide (New England Peptide or GenScript)) [NOXA peptide] | binds | 
